Sequences and labels used below:
T1: Flag-FGFR2-IIIb expressed on CHO cells (human, UniProt P21802 22-821)
T1 construct: whole, on cells; also called CHO-FGFR2-IIIb; FGFR2-IIIb-expressing CHO cells; not shown: Flag-tag at the N-terminus
T1 chain: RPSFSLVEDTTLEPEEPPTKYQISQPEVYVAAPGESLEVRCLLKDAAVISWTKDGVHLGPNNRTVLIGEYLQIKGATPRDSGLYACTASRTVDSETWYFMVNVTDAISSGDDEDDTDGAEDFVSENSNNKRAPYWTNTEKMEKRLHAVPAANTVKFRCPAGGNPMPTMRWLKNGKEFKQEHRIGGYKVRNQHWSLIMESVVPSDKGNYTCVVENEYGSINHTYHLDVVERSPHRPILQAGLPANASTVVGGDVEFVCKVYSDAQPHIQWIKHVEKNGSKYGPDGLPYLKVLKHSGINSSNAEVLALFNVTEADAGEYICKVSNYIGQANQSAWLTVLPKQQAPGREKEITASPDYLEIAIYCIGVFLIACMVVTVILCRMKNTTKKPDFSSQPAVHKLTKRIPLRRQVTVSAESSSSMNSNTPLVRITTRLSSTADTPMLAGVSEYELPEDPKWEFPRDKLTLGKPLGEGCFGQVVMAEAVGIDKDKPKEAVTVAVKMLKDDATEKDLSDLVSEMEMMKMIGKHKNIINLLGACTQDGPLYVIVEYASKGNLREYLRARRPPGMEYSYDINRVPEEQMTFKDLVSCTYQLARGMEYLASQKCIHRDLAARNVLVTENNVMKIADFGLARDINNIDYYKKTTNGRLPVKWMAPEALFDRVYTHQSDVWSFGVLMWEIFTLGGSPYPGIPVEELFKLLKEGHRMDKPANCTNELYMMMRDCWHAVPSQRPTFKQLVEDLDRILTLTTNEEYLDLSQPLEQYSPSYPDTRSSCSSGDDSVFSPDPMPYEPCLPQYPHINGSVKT

T2: FGF8b (UniProt P55075-3 23-215)
T2 construct: Coated on ELISA plates; also called ligand protein FGF8b
T2 sequence (looked up): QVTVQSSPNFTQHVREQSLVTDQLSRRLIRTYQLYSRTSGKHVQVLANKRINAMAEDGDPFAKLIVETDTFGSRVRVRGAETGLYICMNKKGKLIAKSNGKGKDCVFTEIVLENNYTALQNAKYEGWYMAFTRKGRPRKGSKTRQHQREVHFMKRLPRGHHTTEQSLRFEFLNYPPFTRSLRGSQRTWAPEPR

T3: 128AA-mFc (128-amino acid loop-3 fragment of FGFR2IIIc fused to mouse Fc) (human)
T3 chain: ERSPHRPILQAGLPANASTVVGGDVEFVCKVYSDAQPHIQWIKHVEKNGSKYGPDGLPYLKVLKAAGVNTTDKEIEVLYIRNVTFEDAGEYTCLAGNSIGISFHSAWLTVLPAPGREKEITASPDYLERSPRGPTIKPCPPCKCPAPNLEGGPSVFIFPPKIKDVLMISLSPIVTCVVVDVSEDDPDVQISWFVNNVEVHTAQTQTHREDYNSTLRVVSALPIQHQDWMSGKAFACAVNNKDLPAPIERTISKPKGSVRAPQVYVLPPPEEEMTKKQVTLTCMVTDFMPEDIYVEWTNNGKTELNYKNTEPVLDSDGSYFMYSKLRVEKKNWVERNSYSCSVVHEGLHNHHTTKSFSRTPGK

B1: Atto-HuMab-01 (full-length human IgG1) (antibody, V domains shown)
VH: QVQLVQSGAEVKKPGSSVKVSCKASGGTFSSYAISWVRQAPGQGLEWMGRIIPIFGTANYAQKFQGRVTITADESTSTAYMELNSLRSEDTAVYYCARDRWDWNDAFDIWGQGTMVTVSS
VL: not shown
notes: also called Atto-01
B2: FGFR2 IIIb-Fc (Fc fusion)
chain: TLEPEDAISSGDDEDDTDGAEDFVSENSNNKRAPYWTNTEKMEKRLHAVPAANTVKFRCPAGGNPMPTMRWLKNGKEFKQEHRIGGYKVRNQHWSLIMESVVPSDKGNYTCVVENEYGSINHTYHLDVVERSPHRPVLQAGLPANASTVVGGDVEFVCKVYSDAQPHIQWIKHVEKNGSKYGPDGLPYLKVLKHSGINSSNAEVLALFNVTEADAGEYICKVSNYIGQANQSAWLTVLPKQQAPGREKEITASPDYLEDKTHTCPPCPAPELLGGPSVFLFPPKPKDTLYITREPEVTCVVVDVSHEDPEVKFNWYVDGVEVHNAKTKPREEQYNSTYRVVSVLTVLHQDWLNGKEYKCKVSNKALPAPIEKTISKAKGQPREPQVYTLPPSREEMTKNQVSLTCLVKGFYPSDIAVEWESNGQPENNYKTTPPVLDSDGSFFLYSKLTVDKSRWQQGNVFSCSVMHEALKFHYTQKSLSLSPGK
notes: also called FGFR2IIIb beta-ECD; FGFR2IIIb-hFc
B3: human scFv clone 8, phage-displayed (scFv)
scFv: QSVLTQPPSVSAAPGQKVTISCSGSSSNIGNNYVSWYQQLPGTAPKLLIYDNNKRPSGIPDRFSGSKSGTSATLAISGLQSEDEADYYCAAWDDSLNGVVFGGGTKLTVLGSGGSTITSYNVYYTKLSSSGTQVQLVQSGAEVKKPGSSVKVSCKASGGTFSSYAISWVRQAPGQGLEWMGRIIPIFGTANYAQKFQGRVTITADESTSTAYMELNSLRSEDTAVYYCARDRWDWNDAFDIWGQGTMVTVSS
notes: also called scFv-8; Atto-HuMab-08

Assay [1] concerns the target T4, Flag-FGFR2-IIIc expressed on CHO cells (human, UniProt P21802 22-821).
T4 construct: whole, on cells; also called CHO-FGFR2-IIIc; CHO-IIIc; not shown: Flag-tag at the N-terminus
Nature of the assay: cell-based binding assay (cell ELISA) on stable CHO-FGFR2-IIIc cells. Background: An ELISA detects its analyte on a solid surface through an enzyme-linked reagent.

Assay [2] deals with T5, FGFR2-IIIc (receptor protein of FIG. 52C) (UniProt P21802 152-377, limits assumed). As to the kind of experiment: binding curves of biotinylated antibody on FGF receptors (FIG. 52C), format not told; biotinylated antibody, FIG. 52C receptor panel.
Assay [3] concerns the target T4, Flag-FGFR2-IIIc expressed on CHO cells. As to the kind of experiment: cell-based binding assay on stable CHO-FGFR2-IIIc cells, method of Beatty et al.
For assay [4], the target named is T1, Flag-FGFR2-IIIb expressed on CHO cells. Nature of the assay: immunocytochemistry on CHO cells.
For assay [5], the target named is T5, FGFR2-IIIc (receptor protein of FIG. …). As to the kind of experiment: ELISA with biotinylated Atto-HuMab-01; the receptor concentration is varied (x axis: FGFR receptor concentration, nM).
The target in another assay is T2, FGF8b. Nature of the assay: ligand binding ELISA (data not shown).
For the assay “FGFR2 IIIb-Fc”, the target named is B2. As to the kind of experiment: phage ELISA, plate coated with FGFR2 IIIb Fc fusion (whole extracellular domain).
Assay [6] deals with T6, human ferritin (Fer) (human, UniProt P02794 2-183; P02792 2-175, Natural ferritin is a 24-subunit shell of H and L chains in a tissue-dependent ratio, with an iron core. The letters carry one copy of each subunit.).
T6 construct: also called Feritin
Nature of the assay: phage ELISA on coated protein.

Assay [7] has as its target T1, Flag-FGFR2-IIIb expressed on CHO cells. Nature of the assay: immunocytochemical staining of CHO cells transiently expressing FGFR2IIIb.
For assay [8], the target named is T6, human ferritin (Fer). Nature of the assay: phage ELISA on coated protein. This is another data set of the same source.
Assay [9] has as its target T3, 128AA-mFc (128-amino acid loop-3 …). As to the kind of experiment: phage ELISA on coated protein.
In a further assay the target is human ovalbumin (OA) (human). As to the kind of experiment: phage ELISA on coated protein.

What is called EC50 (read off the curve) is the concentration at which the effect is half-maximal. Read a low EC50 (read off the curve) as an effect from little substance. Broadly, the Kd is a measure of binding affinity in units of concentration. Higher therefore signals a looser complex. With B1, the “EC50 (read off the curve)” value in assay [1] was ~0.4 nM; in assay [5], ~0.2 nM. The Kd in assay [2] is ~0.2 nM; in [3], 0.7 nM. For the same molecule, the binding result in [4] is reported as “no binding (tested: 1ug/ml)”.
As for B2, the binding result with FGF8b is listed as “no binding”.
Take B3: the binding result (with FGFR2 IIIb-Fc; with human ferritin (Fer) [6]; in assay [7]) was “no binding” in each case. Further, the entries for the “OD (450 nm)” value (with human ferritin (Fer) [8]; in assay [9]; in the assay with human ovalbumin (OA)) were 0.011, 0.215 and 0.02, respectively.

The record behind these values is patent publication US20130142802A1 (published 2013).
